{"source": "patent US20170015742A1", "about": "(published 2017)", "binders": {"B1": {"name": "9A8.12-GS-9E8.4E DVD-Ig (PR-1577165) (bispecific antibody, human IgG1, kappa, L234A L235A)", "heavy": "EVQLVQSGAEVKKPGASVKVSCKASGYTFTNYGMYWVRQAPGQGLEWMGWINTETGKPIYADDFKGRVTMTTDTSTSTAYMELRSLRSDDTAVYYCARVDYDGSFWFAYWGQGTLVTVSSGGGGSGGGGSEVTLRESGPALVKPTQTLTLTCTFSGFSLSTYGMGVGWIRQPPGKALEWLANIWWDDDKYYNPSLKNRLTISKDTSKNQVVLTMTNMDPVDTATYYCARIESIGTTYSFDYWGQGTMVTVSSASTKGPSVFPLAPSSKSTSGGTAALGCLVKDYFPEPVTVSWNSGALTSGVHTFPAVLQSSGLYSLSSVVTVPSSSLGTQTYICNVNHKPSNTKVDKKVEPKSCDKTHTCPPCPAPEAAGGPSVFLFPPKPKDTLMISRTPEVTCVVVDVSHEDPEVKFNWYVDGVEVHNAKTKPREEQYNSTYRVVSVLTVLHQDWLNGKEYKCKVSNKALPAPIEKTISKAKGQPREPQVYTLPPSREEMTKNQVSLTCLVKGFYPSDIAVEWESNGQPENNYKTTPPVLDSDGSFFLYSKLTVDKSRWQQGNVFSCSVMHEALHNAYTQKSLSLSPGK", "light": "DTQLTQSPSSLSASVGDRVTITCRASESVSTVIHWYQQKPGKQPKLLIHGASNLESGVPSRFSGSGSGTDFTLTISSLQPEDFATYFCQQHWNDPPTFGQGTKLEIKRGGSGGGGSGEFVLTQSPGTLSLSPGERATLSCERSSGDIGESYVSWYQQKPGQAPRLVIYADDQRPSGIPDRFSGSGSGTDFTLTISRLEPEDFAVYYCQSYDINIDIVFGGGTKVEIKRTVAAPSVFIFPPSDEQLKSGTASVVCLLNNFYPREAKVQWKVDNALQSGNSQESVTEQDSKDSTYSLSSTLTLSKADYEKHKVYACEVTHQGLSSPVTKSFNRGEC"}, "B2": {"name": "9A8.12-SL-9E8.4E DVD-Ig (PR-1577166) (bispecific antibody, human IgG1, kappa, L234A L235A)", "heavy": "EVQLVQSGAEVKKPGASVKVSCKASGYTFTNYGMYWVRQAPGQGLEWMGWINTETGKPIYADDFKGRVTMTTDTSTSTAYMELRSLRSDDTAVYYCARVDYDGSFWFAYWGQGTLVTVSSASTKGPEVTLRESGPALVKPTQTLTLTCTFSGFSLSTYGMGVGWIRQPPGKALEWLANIWWDDDKYYNPSLKNRLTISKDTSKNQVVLTMTNMDPVDTATYYCARIESIGTTYSFDYWGQGTMVTVSSASTKGPSVFPLAPSSKSTSGGTAALGCLVKDYFPEPVTVSWNSGALTSGVHTFPAVLQSSGLYSLSSVVTVPSSSLGTQTYICNVNHKPSNTKVDKKVEPKSCDKTHTCPPCPAPEAAGGPSVFLFPPKPKDTLMISRTPEVTCVVVDVSHEDPEVKFNWYVDGVEVHNAKTKPREEQYNSTYRVVSVLTVLHQDWLNGKEYKCKVSNKALPAPIEKTISKAKGQPREPQVYTLPPSREEMTKNQVSLTCLVKGFYPSDIAVEWESNGQPENNYKTTPPVLDSDGSFFLYSKLTVDKSRWQQGNVFSCSVMHEALHNAYTQKSLSLSPGK", "light": "DTQLTQSPSSLSASVGDRVTITCRASESVSTVIHWYQQKPGKQPKLLIHGASNLESGVPSRFSGSGSGTDFTLTISSLQPEDFATYFCQQHWNDPPTFGQGTKLEIKRTVAAPSVFIFPPEFVLTQSPGTLSLSPGERATLSCERSSGDIGESYVSWYQQKPGQAPRLVIYADDQRPSGIPDRFSGSGSGTDFTLTISRLEPEDFAVYYCQSYDINIDIVFGGGTKVEIKRTVAAPSVFIFPPSDEQLKSGTASVVCLLNNFYPREAKVQWKVDNALQSGNSQESVTEQDSKDSTYSLSSTLTLSKADYEKHKVYACEVTHQGLSSPVTKSFNRGEC"}, "B3": {"name": "9A8.12-LS-9E8.4E DVD-Ig (PR-1577547) (bispecific antibody, human IgG1, kappa, L234A L235A)", "heavy": "EVQLVQSGAEVKKPGASVKVSCKASGYTFTNYGMYWVRQAPGQGLEWMGWINTETGKPIYADDFKGRVTMTTDTSTSTAYMELRSLRSDDTAVYYCARVDYDGSFWFAYWGQGTLVTVSSASTKGPSVFPLAPEVTLRESGPALVKPTQTLTLTCTFSGFSLSTYGMGVGWIRQPPGKALEWLANIWWDDDKYYNPSLKNRLTISKDTSKNQVVLTMTNMDPVDTATYYCARIESIGTTYSFDYWGQGTMVTVSSASTKGPSVFPLAPSSKSTSGGTAALGCLVKDYFPEPVTVSWNSGALTSGVHTFPAVLQSSGLYSLSSVVTVPSSSLGTQTYICNVNHKPSNTKVDKKVEPKSCDKTHTCPPCPAPEAAGGPSVFLFPPKPKDTLMISRTPEVTCVVVDVSHEDPEVKFNWYVDGVEVHNAKTKPREEQYNSTYRVVSVLTVLHQDWLNGKEYKCKVSNKALPAPIEKTISKAKGQPREPQVYTLPPSREEMTKNQVSLTCLVKGFYPSDIAVEWESNGQPENNYKTTPPVLDSDGSFFLYSKLTVDKSRWQQGNVFSCSVMHEALHNAYTQKSLSLSPGK", "light": "DTQLTQSPSSLSASVGDRVTITCRASESVSTVIHWYQQKPGKQPKLLIHGASNLESGVPSRFSGSGSGTDFTLTISSLQPEDFATYFCQQHWNDPPTFGQGTKLEIKRTVAAPEFVLTQSPGTLSLSPGERATLSCERSSGDIGESYVSWYQQKPGQAPRLVIYADDQRPSGIPDRFSGSGSGTDFTLTISRLEPEDFAVYYCQSYDINIDIVFGGGTKVEIKRTVAAPSVFIFPPSDEQLKSGTASVVCLLNNFYPREAKVQWKVDNALQSGNSQESVTEQDSKDSTYSLSSTLTLSKADYEKHKVYACEVTHQGLSSPVTKSFNRGEC"}, "B4": {"name": "9E8.4E-SL-9A8.12 DVD-Ig (PR-1577548) (bispecific antibody, human IgG1, kappa, L234A L235A)", "heavy": "EVTLRESGPALVKPTQTLTLTCTFSGFSLSTYGMGVGWIRQPPGKALEWLANIWWDDDKYYNPSLKNRLTISKDTSKNQVVLTMTNMDPVDTATYYCARIESIGTTYSFDYWGQGTMVTVSSASTKGPEVQLVQSGAEVKKPGASVKVSCKASGYTFTNYGMYWVRQAPGQGLEWMGWINTETGKPIYADDFKGRVTMTTDTSTSTAYMELRSLRSDDTAVYYCARVDYDGSFWFAYWGQGTLVTVSSASTKGPSVFPLAPSSKSTSGGTAALGCLVKDYFPEPVTVSWNSGALTSGVHTFPAVLQSSGLYSLSSVVTVPSSSLGTQTYICNVNHKPSNTKVDKKVEPKSCDKTHTCPPCPAPEAAGGPSVFLFPPKPKDTLMISRTPEVTCVVVDVSHEDPEVKFNWYVDGVEVHNAKTKPREEQYNSTYRVVSVLTVLHQDWLNGKEYKCKVSNKALPAPIEKTISKAKGQPREPQVYTLPPSREEMTKNQVSLTCLVKGFYPSDIAVEWESNGQPENNYKTTPPVLDSDGSFFLYSKLTVDKSRWQQGNVFSCSVMHEALHNAYTQKSLSLSPGK", "light": "EFVLTQSPGTLSLSPGERATLSCERSSGDIGESYVSWYQQKPGQAPRLVIYADDQRPSGIPDRFSGSGSGTDFTLTISRLEPEDFAVYYCQSYDINIDIVFGGGTKVEIKRTVAAPSVFIFPPDTQLTQSPSSLSASVGDRVTITCRASESVSTVIHWYQQKPGKQPKLLIHGASNLESGVPSRFSGSGSGTDFTLTISSLQPEDFATYFCQQHWNDPPTFGQGTKLEIKRTVAAPSVFIFPPSDEQLKSGTASVVCLLNNFYPREAKVQWKVDNALQSGNSQESVTEQDSKDSTYSLSSTLTLSKADYEKHKVYACEVTHQGLSSPVTKSFNRGEC"}, "B5": {"name": "9E8.4E-LS-9A8.12 (bispecific antibody, human IgG1, kappa, L234A L235A)", "heavy": "EVTLRESGPALVKPTQTLTLTCTFSGFSLSTYGMGVGWIRQPPGKALEWLANIWWDDDKYYNPSLKNRLTISKDTSKNQVVLTMTNMDPVDTATYYCARIESIGTTYSFDYWGQGTMVTVSSASTKGPSVFPLAPEVQLVQSGAEVKKPGASVKVSCKASGYTFTNYGMYWVRQAPGQGLEWMGWINTETGKPIYADDFKGRVTMTTDTSTSTAYMELRSLRSDDTAVYYCARVDYDGSFWFAYWGQGTLVTVSSASTKGPSVFPLAPSSKSTSGGTAALGCLVKDYFPEPVTVSWNSGALTSGVHTFPAVLQSSGLYSLSSVVTVPSSSLGTQTYICNVNHKPSNTKVDKKVEPKSCDKTHTCPPCPAPEAAGGPSVFLFPPKPKDTLMISRTPEVTCVVVDVSHEDPEVKFNWYVDGVEVHNAKTKPREEQYNSTYRVVSVLTVLHQDWLNGKEYKCKVSNKALPAPIEKTISKAKGQPREPQVYTLPPSREEMTKNQVSLTCLVKGFYPSDIAVEWESNGQPENNYKTTPPVLDSDGSFFLYSKLTVDKSRWQQGNVFSCSVMHEALHNAYTQKSLSLSPGK", "light": "EFVLTQSPGTLSLSPGERATLSCERSSGDIGESYVSWYQQKPGQAPRLVIYADDQRPSGIPDRFSGSGSGTDFTLTISRLEPEDFAVYYCQSYDINIDIVFGGGTKVEIKRTVAAPDTQLTQSPSSLSASVGDRVTITCRASESVSTVIHWYQQKPGKQPKLLIHGASNLESGVPSRFSGSGSGTDFTLTISSLQPEDFATYFCQQHWNDPPTFGQGTKLEIKRTVAAPSVFIFPPSDEQLKSGTASVVCLLNNFYPREAKVQWKVDNALQSGNSQESVTEQDSKDSTYSLSSTLTLSKADYEKHKVYACEVTHQGLSSPVTKSFNRGEC"}, "B6": {"name": "9E8.4E-GS-9A8.12 (bispecific antibody, human IgG1, kappa, L234A L235A)", "heavy": "EVTLRESGPALVKPTQTLTLTCTFSGFSLSTYGMGVGWIRQPPGKALEWLANIWWDDDKYYNPSLKNRLTISKDTSKNQVVLTMTNMDPVDTATYYCARIESIGTTYSFDYWGQGTMVTVSSGGGGSGGGGSEVQLVQSGAEVKKPGASVKVSCKASGYTFTNYGMYWVRQAPGQGLEWMGWINTETGKPIYADDFKGRVTMTTDTSTSTAYMELRSLRSDDTAVYYCARVDYDGSFWFAYWGQGTLVTVSSASTKGPSVFPLAPSSKSTSGGTAALGCLVKDYFPEPVTVSWNSGALTSGVHTFPAVLQSSGLYSLSSVVTVPSSSLGTQTYICNVNHKPSNTKVDKKVEPKSCDKTHTCPPCPAPEAAGGPSVFLFPPKPKDTLMISRTPEVTCVVVDVSHEDPEVKFNWYVDGVEVHNAKTKPREEQYNSTYRVVSVLTVLHQDWLNGKEYKCKVSNKALPAPIEKTISKAKGQPREPQVYTLPPSREEMTKNQVSLTCLVKGFYPSDIAVEWESNGQPENNYKTTPPVLDSDGSFFLYSKLTVDKSRWQQGNVFSCSVMHEALHNAYTQKSLSLSPGK", "light": "EFVLTQSPGTLSLSPGERATLSCERSSGDIGESYVSWYQQKPGQAPRLVIYADDQRPSGIPDRFSGSGSGTDFTLTISRLEPEDFAVYYCQSYDINIDIVFGGGTKVEIKRGGSGGGGSGDTQLTQSPSSLSASVGDRVTITCRASESVSTVIHWYQQKPGKQPKLLIHGASNLESGVPSRFSGSGSGTDFTLTISSLQPEDFATYFCQQHWNDPPTFGQGTKLEIKRTVAAPSVFIFPPSDEQLKSGTASVVCLLNNFYPREAKVQWKVDNALQSGNSQESVTEQDSKDSTYSLSSTLTLSKADYEKHKVYACEVTHQGLSSPVTKSFNRGEC"}}, "data": [{"target": "recombinant human PDGF-BB (human, UniProt P01127 82-190)", "test": "cell-based or functional assay", "units": {"NIH-3T3 hPDGF-BB Potency IC50": "nM"}, "values": [{"binder": "B1", "NIH-3T3 hPDGF-BB Potency IC50": 0.204}, {"binder": "B2", "NIH-3T3 hPDGF-BB Potency IC50": 0.148}, {"binder": "B3", "NIH-3T3 hPDGF-BB Potency IC50": 0.133}, {"binder": "B4", "NIH-3T3 hPDGF-BB Potency IC50": 0.147}]}, {"target": "recombinant human PDGF-BB (human, UniProt P01127 82-190)", "test": "cell-based or functional assay", "remark": "another data set of the same source", "units": {"Potency IC50 (nM) NIH-3T3 hPDGF-BB": "nM"}, "values": [{"binder": "B5", "Potency IC50 (nM) NIH-3T3 hPDGF-BB": 0.066}, {"binder": "B6", "Potency IC50 (nM) NIH-3T3 hPDGF-BB": 0.327}]}]}
